How the values were obtained:
Assay in all cases: ELISA; plates coated with synthetic peptide (10 µg/ml, carbonate buffer pH 9.6); increasing concentrations of recombinant NTF, 2 h, room temperature; anti-HIS detection; apparent Kd
[1] = biological target: NS5A NLS synthetic peptide (fused to penetratin) (hepatitis C virus | not stated)
[2] = biological target: NS3 NLS 2 synthetic peptide (fused to penetratin) (hepatitis C virus | not stated)
[3] = biological target: Core NLS 4 synthetic peptide (fused to penetratin) (hepatitis C virus | not stated)
[4] = biological target: SV40 NLS synthetic peptide (fused to penetratin) (SV40 | not stated)

recombinant IPOA5 (importin α5/kap α1), P52294 1-538 (natural protein; other documents disagree on this pair)
Kd [1]: 7630 nM
Kd [2]: 36.6 nM
Kd [3]: 518 nM
Kd [4]: 27.1 nM
